Several values for one entry are separate records, joined by “and”; a condition that tells them apart may be missing. Equal entries are not always repeated.
What was measured:
[1] = target: T1, soluble hGPC3 protein (recombinant human glypican 3) (human, UniProt P51654 25-560, limits assumed); assay: BLI (Octet Red96), mAb captured on anti-hIgG Fc sensor, GPC3 as analyte, 1:1 fit, 25 C; BLI, soluble hGPC3
T1 construct: The construct used in ELISA and BLI and as FITC-labelled protein is not further defined; also called rhGPC3; FITC-labeled hGPC3
Experimental: (§1) Kinetics experiments were performed using the ForteBio Octet Red96 platform. All data were collected at 25° C. with orbital shaking at 1,000 rpm in 200 μL in 96-well black flat bottom plates (Greiner Bio-one). Anti-hIgG Fc Capture Sensor (ForteBio) were equilibrated for 10 min in 1×kinetics buffer prior to loading with 5 μg/mL of mAbs for 2 min. After the loading step, a 30 s baseline in 1×kinetics buffer was established before association with a range of concentrations of GPC3 for 2 min. Following mAbs association with GP, there was a 10-minute of dissociation step in kinetic buffer. For all experiments, two reference sensors without association to mAbs were used to account for nonspecific binding of analyte to the sensor and the system drift. All data were fit globally to a 1:1 Langmuir binding model using data analysis software 9.0 (ForteBio).
(§2) The 3 mAbs belong to different Ig classes, i.e., 6G11 and 12D7 are IgM, whereas 8F8 is IgG2a. To fairly compare their affinity, mAbs were generated recombinant using their VL and VH and a same human IgG constant region. Fig.3A illustrates the structure of the recombinant mAbs. The mAbs were expressed and purified from 293 cells (FIG 3B). […] The mAb's affinity was also studied by BioLayer Interferometry (BLI). […] The affinity data obtained by ELISA assay and BLI are in the same order, i.e., 6G11>12D7>8F8. Because the purpose of developing the mAbs is to bind hGPC3 molecules on the tumor cell surface, we determined the affinity of the mAbs for hGPC3 on HepG2 cells.

N3 (59-97) = target: T2, N3 (59-97) (human, UniProt P51654); assay: ELISA on plate-coated synthetic peptide, anti-human IgG-HRP
T2 construct: overlapping synthetic peptide
T2 peptide (looked up): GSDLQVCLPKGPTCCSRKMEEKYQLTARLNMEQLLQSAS
Experimental: (§3) 96-well Flat-Bottom Immuno Plates (from Thermo Fisher) were coated with 4 ug of PBS-diluted peptides, overnight, at […]. 1 ug of rhGPC3 (from Creative Biomart) was used as positive control. The next day, peptides were discarded and plates were blocked with 100 μl of 5% non-fat milk in PBS. Then, the plates were washed with 300 μl/well of PBST (0.1% Tween20). Next, incubation with 100 uL/well of different antibody dilutions. This was followed by four washes with PBST. Then, incubation with 100 uL/well of anti-human IgG-HRP (From KPL) (1:2000 dilution). This was followed by four washes with PBST. Next, 100 uL/well of TMB (from Biolengend), incubation for 30 minutes. Then, 100 uL/well of 2N H2SO4. Lastly, OD450 nm was detected in an xMark™ Microplate Spectrophotometer (from BIO-RAD). If not indicated otherwise, incubations were performed for 1 hour at RT, and antibodies were diluted in 2% non-fat milk in PBS.

N2 (30-68) = target: T3, N2 (30-68) (human, UniProt P51654); assay: as above
T3 construct: overlapping synthetic peptide
T3 peptide (looked up): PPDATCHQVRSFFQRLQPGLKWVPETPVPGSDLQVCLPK
Experimental: as §3

N4 (88-126) = target: T4, N4 (88-126) (human, UniProt P51654); assay: as above
T4 construct: overlapping synthetic peptide
T4 peptide (looked up): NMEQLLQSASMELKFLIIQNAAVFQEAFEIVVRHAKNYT
Experimental: as §3

[2] = target: T5, N1 peptide (AA25-39 of hGPC3) (human, UniProt P51654 25-39); assay: as above
T5 construct: range 25-39
T5 peptide (looked up): QPPPPPPDATCHQVR
Experimental: as §3

[3] = target: T1, soluble hGPC3 protein (recombinant …); assay: BLI, 1:1 global fit; kon Error 2.81E+02, R^2 0.9958
Experimental: as §1

[4] = target: T1, soluble hGPC3 protein (recombinant …); assay: BLI, 1:1 global fit; kdis(1/s); kdis Error 2.89E-06, R^2 0.9958
Experimental: as §1

[5] = target: T1, soluble hGPC3 protein (recombinant …); assay: ELISA of recombinant mAb on hGPC3, OD450
[6] = target: T1, soluble hGPC3 protein (recombinant …); assay: BLI, 1:1 global fit; KD Error 9.61E-11, R^2 0.9958
Experimental: as §1

[7] = target: T6, hGPC3 on the surface of HCC tumor cells (HepG2; hGPC3low Huh7) (human, UniProt P51654 25-554); assay: immunofluorescent staining of HepG2 cells at different mAb concentrations, percent positive cells; hGPC3 on HepG2 cells
T6 construct: whole, on cells; GPI-anchored; also called hGPC3 on HepG2 cells; hGPC3 molecules on the tumor cell surface
Source text: FIG. 3A is an illustration showing the schematic structure of the recombinant mAbs. SP: signal peptide of human IgG; VL: variable region of light chain; VH: variable region of heavy chain; CL: constant region of human IgG light chain; CH: constant region of human IgG heavy chain. FIG. 3B is gel showing PAGE analysis of purified recombinant mAbs under reduced and non-reduced condition. mAbs were purified from the 293 cells after co-transfection of the L and H chain expressing plasmids. Gel was stained with SimplyBlue SafeStain, FIG. 3C is a graph showing the EC50 of recombinant mAbs by ELISA. FIG. 3D is a panel of graphs showing the Kd value of each mAbs was measured by BLI. Each experiment was repeated at least 3 times and similar data were obtained. FIG. 3E is a graph showing the Kd value of mAbs 6G11, 8F8, and 12D7 for staining HepG2 tumor cells. Immunofluorescent staining was conducted for HepG2 tumor cells using the mAbs at different concentration. Based on the percent of positive cells and the mAb concentration, the Kd value was calculated by Prism software.
as §2

[8] = target: T7, hGPC3-N fragment (AA1-358) (human, UniProt P51654 25-358); assay: flow cytometry, intracellular staining of 293 cells transfected with hGPC3-N; gate set on untransfected cells
T7 construct: range 1-358; Detected by intracellular staining or western blot of transfected 293/293T cells
Source text: FIG. 1A is a table of 22 hGPC3-specific mAbs identified by ELISA assay. Their Ig class, staining of HepG2 cells, and binding of the hGPC3 N- or C-fragment were provided. […] FIG. 1B is a panel of micrographs showing representative immunofluorescent stainings of HepG2 tumor cells by 5 mAbs. FIG. 1C is a diagram of plasmids expressing the N- and C-fragments of hGPC3. FIG. 1D is a panel of graphs showing 293 cells transfected with either hGPC3-N or hGPC3-C plasmid intracellularly stained with indicated mAbs. The gate was set by the parental 293T cells without transfection.

[9] = target: T1, soluble hGPC3 protein (recombinant …); assay: BLI, 1:1 global fit; kdis(1/s); kdis Error 3.37E-06, R^2 0.9939
Experimental: as §1

[10] = target: T1, soluble hGPC3 protein (recombinant …); assay: BLI, 1:1 global fit; kon Error 4.12E+02, R^2 0.9939
Experimental: as §1

[11] = target: T1, soluble hGPC3 protein (recombinant …); assay: BLI, 1:1 global fit; KD Error 8.68E-11, R^2 0.9939
Experimental: as §1

[12] = target: T1, soluble hGPC3 protein (recombinant …); assay: BLI, 1:1 global fit; kdis(1/s); kdis Error 1.83E-06, R^2 0.9993
Experimental: as §1

[13] = target: T1, soluble hGPC3 protein (recombinant …); assay: BLI, 1:1 global fit; KD Error 2.90E-10, R^2 0.9993
Experimental: as §1

[14] = target: T1, soluble hGPC3 protein (recombinant …); assay: BLI, 1:1 global fit; kon Error 8.02E+01, R^2 0.9993
Experimental: as §1

T1 sequence (P51654 25-560 limits assumed): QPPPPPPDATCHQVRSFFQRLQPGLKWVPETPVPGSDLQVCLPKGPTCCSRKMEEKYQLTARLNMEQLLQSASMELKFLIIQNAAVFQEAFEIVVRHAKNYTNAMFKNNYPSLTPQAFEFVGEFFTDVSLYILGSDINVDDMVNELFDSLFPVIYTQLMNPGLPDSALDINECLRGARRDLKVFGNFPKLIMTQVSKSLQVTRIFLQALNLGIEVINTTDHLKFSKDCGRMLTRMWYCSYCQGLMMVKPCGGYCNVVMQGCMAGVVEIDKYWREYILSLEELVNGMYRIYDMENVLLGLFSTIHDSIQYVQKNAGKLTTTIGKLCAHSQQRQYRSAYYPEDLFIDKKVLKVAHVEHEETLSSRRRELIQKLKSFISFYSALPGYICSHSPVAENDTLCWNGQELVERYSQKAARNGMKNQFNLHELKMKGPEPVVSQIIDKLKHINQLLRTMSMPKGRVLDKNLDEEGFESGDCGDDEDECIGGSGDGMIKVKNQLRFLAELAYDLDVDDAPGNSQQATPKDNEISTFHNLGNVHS
T7 sequence (P51654 25-358 limits assumed, form in doubt): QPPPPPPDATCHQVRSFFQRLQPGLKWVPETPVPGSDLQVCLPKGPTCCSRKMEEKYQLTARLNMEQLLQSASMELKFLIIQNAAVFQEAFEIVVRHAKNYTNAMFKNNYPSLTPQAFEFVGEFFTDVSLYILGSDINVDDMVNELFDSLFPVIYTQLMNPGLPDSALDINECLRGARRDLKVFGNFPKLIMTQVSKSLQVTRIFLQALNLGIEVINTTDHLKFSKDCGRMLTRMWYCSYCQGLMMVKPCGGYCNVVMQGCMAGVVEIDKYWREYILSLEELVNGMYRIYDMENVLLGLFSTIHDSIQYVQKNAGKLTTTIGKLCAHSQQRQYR
T6 sequence (P51654 25-554 limits assumed): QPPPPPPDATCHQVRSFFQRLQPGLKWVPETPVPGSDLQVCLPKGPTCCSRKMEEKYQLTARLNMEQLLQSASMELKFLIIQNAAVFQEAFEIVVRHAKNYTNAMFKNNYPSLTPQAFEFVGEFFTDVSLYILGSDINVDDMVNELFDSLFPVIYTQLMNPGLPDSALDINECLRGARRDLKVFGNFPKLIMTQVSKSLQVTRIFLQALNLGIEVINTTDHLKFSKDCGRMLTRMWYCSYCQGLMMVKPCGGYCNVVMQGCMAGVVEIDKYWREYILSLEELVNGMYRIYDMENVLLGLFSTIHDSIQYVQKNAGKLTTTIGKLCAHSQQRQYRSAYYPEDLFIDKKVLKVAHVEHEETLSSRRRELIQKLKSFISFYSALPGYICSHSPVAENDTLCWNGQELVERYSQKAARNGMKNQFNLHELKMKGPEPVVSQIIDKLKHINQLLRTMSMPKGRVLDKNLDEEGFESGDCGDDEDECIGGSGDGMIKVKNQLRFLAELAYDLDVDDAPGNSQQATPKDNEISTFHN

B1: recombinant mAb 12D7 (12D7 VL and VH fused to human IgG constant regions) (antibody, V domains shown)
VH: QVQLQQPGSELVRPGASVKLSCKASGYTFTSYWMHWVKQRLGQGLEWIGNIYPGSGSTNYDEKFKSKGTLTVDTSSSTAYMHLSSLTSEDSAVYYCTRGDYDWVFAYWGQGTLVTVSA
VL: DIVMTQSQKFMSTSVGDRVSVTCKASQNVGTNVAWYQQKPGQSPKALIYSASYRYSGVPDRFTGSGSGTDFTLTISNVQSEDLAEYFCQQYNSYPLTFGAGTKLELKR
notes: Expressed in 293 cells; only the claims assign heavy and light; also called 12D7 mAb
Kd [1]: 9.8 nM | binding result (N3 (59-97)): no binding (tested: 10 µg/ml) | binding result (N2 (30-68)): no binding (tested: 10 µg/ml) | binding result (N4 (88-126)): no binding (tested: 10 µg/ml) | binding result [2]: no binding (tested: 10 µg/ml) | kon [3]: 41500 M⁻¹ s⁻¹ | koff [4]: 0.000405 s⁻¹ | EC50 [5]: 0.125 µg/mL and 0.82 nM | EC50 (read off the curve) [5]: ~0.1 µg/mL | Kd [6]: 9.76 nM | EC50 [7]: 0.1 nM

B2: mAb 12D7 (mouse hybridoma antibody) (antibody, V domains shown)
VH: B1 VH
VL: B1 VL
notes: Mouse IgM with kappa light chain, from hybridoma
% of cells in the positive gate [8]: 43.2%

B3: recombinant mAb 6G11 (6G11 VL and VH fused to human IgG constant regions) (antibody, V domains shown)
VH: QVQLQQPGSELVRPGASVKLSCKASGYTFTSCWMHWVKQRPGQGLEWIGNIYPGYGNTNYDEKFKNKATLTVDTSSSTAYMQLSGLTSEDSAVYYCTRGSYLYAMDYWGQGTSVTVSS
VL: DIQMNQSPSSLSASLGDTITITCHASQNINVWLSWYQQKPGNIPKLLIYKASNLHTGVPSRFSGSGSGTGFTLTISSLQPEDIATYYCQQGQSYPWTFGGGTKLEIKR
notes: Expressed in 293 cells; only the claims assign heavy and light; also called 6G11 mAb
koff [9]: 0.000389 s⁻¹ | Kd [1]: 7.4 nM | binding result [2]: binds | EC50 [5]: 0.0072 µg/mL and 0.047 nM | kon [10]: 52400 M⁻¹ s⁻¹ | EC50 [7]: 0.095 nM | Kd [11]: 7.43 nM

B4: mAb 6G11 (mouse hybridoma antibody) (antibody, V domains shown)
VH: B3 VH
VL: B3 VL
notes: Mouse IgM with kappa light chain, from hybridoma; claim 21 names 5 and 7 as the amino acid entries
% of cells in the positive gate [8]: 44.3%

B5: recombinant mAb 8F8 (8F8 VL and VH fused to human IgG constant regions) (antibody, V domains shown)
VH: EVKLVESGGDLVKPGGSLKLSCAASGFTFSRYGLSWVRQTPEKRLEWVATISGSGSYTYYPDSVKGRFTISRDNAKNNLYLQMSSLRSEDTALYYCVRRGTYGYDNWGQGTTLTVSS
VL: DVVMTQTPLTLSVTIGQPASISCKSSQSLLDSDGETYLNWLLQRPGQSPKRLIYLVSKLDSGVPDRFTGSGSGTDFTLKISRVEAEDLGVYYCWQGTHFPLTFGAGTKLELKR
notes: Expressed in 293 cells; only the claims assign heavy and light; also called 8F8 mAb
koff [12]: 0.000206 s⁻¹ | Kd [13]: 22.9 nM | Kd [1]: 23 nM | EC50 [5]: 0.294 µg/mL and 1.93 nM | EC50 [7]: 12 nM | kon [14]: 8970 M⁻¹ s⁻¹

B6: mAb 8F8 (mouse hybridoma antibody) (antibody, V domains shown)
VH: B5 VH
VL: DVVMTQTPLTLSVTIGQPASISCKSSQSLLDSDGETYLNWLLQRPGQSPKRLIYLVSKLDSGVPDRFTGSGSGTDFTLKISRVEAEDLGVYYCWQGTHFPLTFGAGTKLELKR
notes: Mouse IgG2a with kappa light chain, from hybridoma
% of cells in the positive gate [8]: 0.31%
